From US20230049152A1 (Genentech, published 2023)

Assays:
human CCR8 [1] = target: T1, human CCR8 (human, UniProt P51685 1-355); assay: flow cytometry, human colorectal cancer dissociated tumor cells, 2 ug/mL mAb, AF647 anti-human IgG; CCR8 read on Treg cells
T1 construct: the assay field says which; also called hCCR8; huCCR8
Protocol: The mAbs were evaluated for binding to regulatory T cells (Treg cells or Tregs) by Fluorescence-Activated Cell Sorting (FACS) flow cytometry. Human colorectal dissociated tumor cells (DTC) (Discovery Life Sciences) were thawed according to vendor's protocol. Cells were surface stained with eFluor 780-conjugated Fixable Viability Dye (ThermoFisher Scientific) and 2 ug/mL mAb specific for CCR8, OX40 (positive control), Herceptin (negative control), or anti-hIgG (negative control) for 20 min at 4° C. followed by secondary detection with AF647-conjugated AffiniPure F(ab′)2 Fragment Goat anti-Human IgG, Fcg fragment-specific (Jackson ImmunoResearch) for 10 min at 4° C. Cells were then intracellularly stained using the eBioscience Foxp3/Transcription Factor Staining Buffer Set (ThermoFisher Scientific) according to the manufacturer's protocol. […] Shown in FIG. 1 are mean fluorescent intensity (MFI) values for CD8 T cells (defined as CD45+CD14−CD3+CD8+CD4−) (circles, ◯), conventional CD4 T cells (defined as CD45+CD14−CD3+CD8−CD4+FOXP3−) (squares, □), and Treg cells (defined as CD45+CD14−CD3+CD8−CD4+FOXP3+) (triangles, ▴). Three of the five CCR8 mAb clones specifically stained Treg cells and not conventional CD4 or CD8 T cells and were ranked according to CCR8 MFI, greater than 500 MFI: hu.Ab4.H1L1>hu.Ab5.H1L1>hu.Ab3.H1L1. […]

human CCR8 [2] = target: T1, human CCR8; assay: cell-based or functional assay
cyno CCR8 = target: T2, cyno CCR8 (cynomolgus monkey, UniProt O97665 1-356 (rhesus entry)); assay: flow cytometry on human and cyno CCR8 CHO cells
T2 construct: also called cynomolgus monkey CCR8
T2 sequence (O97665 other isoform, or with tags, fused parts or gaps): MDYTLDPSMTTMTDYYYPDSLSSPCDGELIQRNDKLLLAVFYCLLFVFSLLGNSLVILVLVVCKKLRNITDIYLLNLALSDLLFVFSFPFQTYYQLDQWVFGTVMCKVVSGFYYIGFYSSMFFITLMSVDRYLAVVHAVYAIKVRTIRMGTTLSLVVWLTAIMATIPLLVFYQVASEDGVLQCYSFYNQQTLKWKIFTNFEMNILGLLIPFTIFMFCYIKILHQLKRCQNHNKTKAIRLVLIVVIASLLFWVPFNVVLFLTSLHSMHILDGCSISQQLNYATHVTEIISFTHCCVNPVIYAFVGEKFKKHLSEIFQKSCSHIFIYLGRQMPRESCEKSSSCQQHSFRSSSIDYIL

human CCR2 = target: T3, human CCR2 (human, UniProt P41597 1-374); assay: flow cytometry, HEK293 with N-term FLAG-tagged human CCR2
T3 construct: whole, on cells; transiently expressed on HEK293 cells
T3 sequence (P41597 whole entry): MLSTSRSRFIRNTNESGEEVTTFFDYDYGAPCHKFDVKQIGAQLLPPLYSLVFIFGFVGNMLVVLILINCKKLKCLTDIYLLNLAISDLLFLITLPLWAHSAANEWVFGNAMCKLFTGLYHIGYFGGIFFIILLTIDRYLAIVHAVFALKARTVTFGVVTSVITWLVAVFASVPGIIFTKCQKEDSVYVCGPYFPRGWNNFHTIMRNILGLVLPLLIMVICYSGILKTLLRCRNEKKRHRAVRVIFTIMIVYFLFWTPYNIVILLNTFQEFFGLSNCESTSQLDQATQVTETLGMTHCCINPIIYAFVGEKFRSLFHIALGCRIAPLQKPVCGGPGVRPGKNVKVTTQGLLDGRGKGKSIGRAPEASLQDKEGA
Description: (§1) FIGS. 4A-4F depicts the binding data of hu.Ab3.H1L1 (FIG. 4A), hu.Ab4.H1L1 (FIG. 4B), and hu.Ab5.H1L1 (FIG. 4C), as well as the commercial anti-CCR8 mAbs murine anti-human CCR8 mAb 433H (BD Biosciences) (FIG. 4D), and murine anti-human CCR8 mAb L263G8 (Biolegend) (FIG. 4E), and the humanized anti-human Yoshida anti-CCR8 mAb (FIG. 4F), to HEK293 cells that were transiently transfected with N-term FLAG-tagged plasmids encoding for human GPCRs (CCR2, CCR3, CCR4, CCR5, CCR8, CXCR4, ACKR2, and ACKR4), hCCR8 constructs, or with a mock construct using transIT X2 (reagent:DNA=3:1).
To confirm the selectivity to CCR8, the binding of hu.Ab3.H1L1, hu.Ab4.H1L1, and hu.Ab5.H1L1, as well as the Yoshida humanized anti-human CCR8, murine anti-human CCR8 mAb L263G8 (Biolegend, Commercial Ab) and murine anti-human CCR8 mAb 433H (BD Biosciences, Commercial Ab), were characterized by flow cytometry on HEK293 cells that were transiently transfected with plasmids encoding for FLAG-tagged other related human GPCRs (CCR2-5, CXCR4, ACKR2, and ACKR4). Cell surface expression of each GPCR was confirmed by staining with an anti-FLAG antibody control. In particular, HEK293 cells were transfected with N-term FLAG-tagged human CCR2, CCR3, CCR4, CCR5, CXCR4, ACKR2, ACKR4, hCCR8 constructs, or with a Mock construct using transIT X2 (reagent:DNA=3:1) for 24 hours, and surface stained with various anti-hCCR8 monoclonal antibodies at 5 ug/ml, or rabbit anti-Flag pAb (Sigma) followed by AF647-anti-hIgG or AF647-anti-RbIgG respectively. Antibodies hu.Ab4.H1L1, and hu.Ab5.H1L1, only stained the hCCR8-containing cells, confirming their specificity to hCCR8. […] Thus, the CCR8 selective hu.Ab4.H1L1 and hu.Ab5.H1L1 antibodies with the best ADCC activities were carried forward.

human CCR8 [3] = target: T1, human CCR8; assay: flow cytometry, 2 ug/mL mAb, Treg cells of human colorectal dissociated tumor cells
Protocol: The mAbs were evaluated for binding to regulatory T cells (Treg cells or Tregs) by Fluorescence-Activated Cell Sorting (FACS) flow cytometry. Human colorectal dissociated tumor cells (DTC) (Discovery Life Sciences) were thawed according to vendor's protocol. Cells were surface stained with eFluor 780-conjugated Fixable Viability Dye (ThermoFisher Scientific) and 2 ug/mL mAb specific for CCR8, OX40 (positive control), Herceptin (negative control), or anti-hIgG (negative control) for 20 min at 4° C. followed by secondary detection with AF647-conjugated AffiniPure F(ab′)2 Fragment Goat anti-Human IgG, Fcg fragment-specific (Jackson ImmunoResearch) for 10 min at 4° C. Cells were then intracellularly stained using the eBioscience Foxp3/Transcription Factor Staining Buffer Set (ThermoFisher Scientific) according to the manufacturer's protocol. […] Shown in FIG. 1 are mean fluorescent intensity (MFI) values for CD8 T cells (defined as CD45+CD14−CD3+CD8+CD4−) (circles, ◯), conventional CD4 T cells (defined as CD45+CD14−CD3+CD8−CD4+FOXP3−) (squares, □), and Treg cells (defined as CD45+CD14−CD3+CD8−CD4+FOXP3+) (triangles, ▴). Three of the five CCR8 mAb clones specifically stained Treg cells and not conventional CD4 or CD8 T cells and were ranked according to CCR8 MFI, greater than 500 MFI: hu.Ab4.H1L1>hu.Ab5.H1L1>hu.Ab3.H1L1. Upon confirmation that these three CCR8 mAb clones, namely, hu.Ab3.H1L1, hu.Ab4.H1L1, and hu.Ab5.H1L1, also retained human-cyno cross-reactivity (differences less than 5-fold on human and cyno CCR8 CHO cells), these antibodies carried forward for further exploration.

human CCR3 = target: T4, human CCR3 (human, UniProt P51677 1-355); assay: flow cytometry, HEK293 transiently transfected with N-term FLAG-tagged human CCR3, antibody at 5 ug/ml
T4 construct: whole, on cells; transiently expressed on HEK293 cells
T4 sequence (looked up): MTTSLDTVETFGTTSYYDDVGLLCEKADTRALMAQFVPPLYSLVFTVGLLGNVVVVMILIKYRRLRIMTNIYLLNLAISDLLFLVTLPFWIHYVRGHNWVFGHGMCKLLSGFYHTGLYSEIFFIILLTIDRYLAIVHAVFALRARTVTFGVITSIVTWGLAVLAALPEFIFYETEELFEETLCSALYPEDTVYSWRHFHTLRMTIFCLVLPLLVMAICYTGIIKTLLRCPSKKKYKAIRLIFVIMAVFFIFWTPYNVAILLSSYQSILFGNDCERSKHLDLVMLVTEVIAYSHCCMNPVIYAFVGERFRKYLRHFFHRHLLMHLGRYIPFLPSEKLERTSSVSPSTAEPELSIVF
Description: as §1
(§2) To confirm the selectivity to CCR8, the binding of hu.Ab3.H1L1, hu.Ab4.H1L1, and hu.Ab5.H1L1, as well as the Yoshida humanized anti-human CCR8, murine anti-human CCR8 mAb L263G8 (Biolegend, Commercial Ab) and murine anti-human CCR8 mAb 433H (BD Biosciences, Commercial Ab), were characterized by flow cytometry on HEK293 cells that were transiently transfected with plasmids encoding for FLAG-tagged other related human GPCRs (CCR2-5, CXCR4, ACKR2, and ACKR4). Cell surface expression of each GPCR was confirmed by staining with an anti-FLAG antibody control. […]

human CCR5 = target: T5, human CCR5 (human, UniProt P51681 1-352); assay: flow cytometry, HEK293 transiently transfected with N-term FLAG-tagged human CCR5, antibody at 5 ug/ml
T5 construct: whole, on cells; transiently expressed on HEK293 cells
T5 sequence (P51681 whole entry): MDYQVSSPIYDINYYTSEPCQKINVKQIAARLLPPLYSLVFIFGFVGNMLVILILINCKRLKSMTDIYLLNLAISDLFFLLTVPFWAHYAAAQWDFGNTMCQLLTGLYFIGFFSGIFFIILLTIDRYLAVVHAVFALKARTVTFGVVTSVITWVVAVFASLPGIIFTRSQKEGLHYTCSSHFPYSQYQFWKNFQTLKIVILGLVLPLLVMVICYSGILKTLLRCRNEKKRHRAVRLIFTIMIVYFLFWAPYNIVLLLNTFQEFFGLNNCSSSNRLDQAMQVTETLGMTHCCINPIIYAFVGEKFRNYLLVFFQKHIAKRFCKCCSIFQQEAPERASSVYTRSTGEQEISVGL
Description: as §1, §2

human ACKR4 = target: T6, human ACKR4 (human, UniProt Q9NPB9 1-350); assay: flow cytometry, HEK293 transiently transfected with N-term FLAG-tagged human ACKR4, antibody at 5 ug/ml
T6 construct: whole, on cells; transiently expressed on HEK293 cells
T6 sequence (looked up): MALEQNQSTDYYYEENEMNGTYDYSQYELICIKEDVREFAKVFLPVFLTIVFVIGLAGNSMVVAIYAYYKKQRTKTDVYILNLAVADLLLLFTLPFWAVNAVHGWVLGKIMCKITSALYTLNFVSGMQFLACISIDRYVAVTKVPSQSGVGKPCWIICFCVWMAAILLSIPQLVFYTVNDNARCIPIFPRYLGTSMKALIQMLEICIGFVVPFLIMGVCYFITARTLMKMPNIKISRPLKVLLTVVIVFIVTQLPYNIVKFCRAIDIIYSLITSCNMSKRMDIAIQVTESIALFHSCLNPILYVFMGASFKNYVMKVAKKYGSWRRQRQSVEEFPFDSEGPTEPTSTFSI
Description: as §1, §2

human CXCR4 = target: T7, human CXCR4 (human, UniProt P61073 1-352); assay: flow cytometry, HEK293 transiently transfected with N-term FLAG-tagged human CXCR4, antibody at 5 ug/ml
T7 construct: whole, on cells; transiently expressed on HEK293 cells
T7 sequence (P61073 whole entry): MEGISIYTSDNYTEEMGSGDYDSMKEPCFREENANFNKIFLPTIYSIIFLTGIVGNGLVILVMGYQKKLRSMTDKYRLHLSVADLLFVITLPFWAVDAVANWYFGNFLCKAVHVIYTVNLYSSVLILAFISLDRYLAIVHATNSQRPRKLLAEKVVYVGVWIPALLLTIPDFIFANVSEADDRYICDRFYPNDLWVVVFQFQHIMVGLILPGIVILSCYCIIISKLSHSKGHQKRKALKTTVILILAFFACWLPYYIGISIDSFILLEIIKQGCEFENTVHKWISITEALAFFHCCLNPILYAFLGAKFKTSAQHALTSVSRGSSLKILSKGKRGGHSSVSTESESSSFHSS
Description: as §1, §2

B1: hu.Ab2.H1L1 (antibody, human IgG1, kappa, V domains shown)
VH: EQQLVESGGGVVQPGRSLRLSCAASGFSFSYGYDMCWVRQAPGKGLEWIACISAGSSDNTWYASWAKGRFTISKDTSKTTVYLQMNSLRAEDTAVYFCSRYLGLWGPGTLVTVSS
VL: EQVLTQSPGTLSLSPGERATLSCQSSKSVNNNNLAWYQQKPGQPPRLLIYFASALASGVPDRFSGSGSGTDFTLTISRLEPEDFAVYYCQGAYSGGSDSYAFGGGTKVEIKR
notes: humanized rabbit anti-CCR8 antibody, human IgG1
binding result (human CCR8 [1]): binds

B2: hu.Ab3.H1L1 (antibody, human IgG1, kappa, V domains shown)
VH: EQQLVESGGGLVQPGGSLRLSCAVSGFSLSSYAMSWVRQAPGKGLEWIGVISASGRIIYATWAKGRFTISKDSAKTSVYLQMNSLRDEDTAVYFCARGVPSYSLVMSDWGPGTTVTVSS
VL: EPVMTQSPATLSVSPGERATLSCQASQSISNALAWYQQKPGQPPRLLIYEVSKVASGVPARFSGSGSGTEFTLTISSLQSEDFAVYYCQSAYYGNSYVWGAFGQGTKVEIKR
notes: humanized, human IgG1
ADCC EC50, NK-92_F158 effector cells, calcein release (human CCR8 [2]): 0.02 nM | binding result (cyno CCR8): binds | binding result (human CCR2): no binding (tested: 5 ug/ml) | MFI (human CCR8 [3]): > 500 MFI | binding result (human CCR3): binds | binding result (human CCR5): binds | binding result (human ACKR4): binds | binding result (human CXCR4): binds
